± gives the uncertainty stated by the source.
B1: Formin-binding protein 4, residues 200 to 261; numbered along this chain, Q8N3X1 (parent)
chain: SGWQYDTQCSLAGVGIEMGDWQEVWDENTGCYYYWNTQTNEVTWELPQYLATQVQGLQHYQP

Variants of: B1
Experiment: abundance fitness (aPCA) (normalised: wild type 0, dead -1); higher = more abundant; growth selection in yeast, the domain comes from the species named
Conditions: Homo sapiens

Row | Variant | abundance fitness
1 | SGWQYDTQCSLAGVGIERGDWQEVWDENTGCYYYWNTQTNEVTWELPQYLATQVQGLQHYQP | -0.643 ± 0.092
2 | SGWQYDTQCSLAGVGIEPGDWQEVWDENTGCYYYWNTQTNEVTWELPQYLATQVQGLQHYQP | -0.264 ± 0.098
3 | SGWQYDTQCSLAGVGIEIGDWQEVWDENTGCYYYWNTQTNEVTWELPQYLATQVQGLQHYQP | -0.247 ± 0.16
4 | SGWQYDTQCSLAGVGIESGDWQEVWDENTGCYYYWNTQTNEVTWELPQYLATQVQGLQHYQP | -0.586 ± 0.099
5 | SGWQYDTQCSLAGVGIEAGDWQEVWDENTGCYYYWNTQTNEVTWELPQYLATQVQGLQHYQP | -0.685 ± 0.099
6 | SGWQYDTQCSLAGVSIEMGDWQEVWDENTGCYYYWNTQTNEVTWELPQYLATQVQGLQHYQP | -0.11 ± 0.087
7 | SGWQYDTQCSLAGVVIEMGDWQEVWDENTGCYYYWNTQTNEVTWELPQYLATQVQGLQHYQP | -0.481 ± 0.075
8 | SGWQYDTQCSLAGVDIEMGDWQEVWDENTGCYYYWNTQTNEVTWELPQYLATQVQGLQHYQP | 0.132 ± 0.1
9 | SGWQYDTQCSLAGVNIEMGDWQEVWDENTGCYYYWNTQTNEVTWELPQYLATQVQGLQHYQP | -0.21 ± 0.15
10 | SGWQYDTQCSLAGVMIEMGDWQEVWDENTGCYYYWNTQTNEVTWELPQYLATQVQGLQHYQP | -0.321 ± 0.12
11 | SGWQYDTQCSLAGVPIEMGDWQEVWDENTGCYYYWNTQTNEVTWELPQYLATQVQGLQHYQP | -0.03 ± 0.088
12 | SGWQYDTQCSLAGVTIEMGDWQEVWDENTGCYYYWNTQTNEVTWELPQYLATQVQGLQHYQP | -0.099 ± 0.094
13 | SGWQYDTQCSLAGVYIEMGDWQEVWDENTGCYYYWNTQTNEVTWELPQYLATQVQGLQHYQP | -0.661 ± 0.18
14 | SGWQYDTQCSLAGVLIEMGDWQEVWDENTGCYYYWNTQTNEVTWELPQYLATQVQGLQHYQP | -0.638 ± 0.085
15 | SGWQYDTQCSLAGVWIEMGDWQEVWDENTGCYYYWNTQTNEVTWELPQYLATQVQGLQHYQP | -0.727 ± 0.16
16 | SGWQYDTQCSLAGVFIEMGDWQEVWDENTGCYYYWNTQTNEVTWELPQYLATQVQGLQHYQP | -0.583 ± 0.14
17 | SGWQYDTQCSLAGVHIEMGDWQEVWDENTGCYYYWNTQTNEVTWELPQYLATQVQGLQHYQP | -0.536 ± 0.16
18 | SGWQYDTQCSLAGVRIEMGDWQEVWDENTGCYYYWNTQTNEVTWELPQYLATQVQGLQHYQP | -0.071 ± 0.071
19 | SGWQYDTQCSLAGVQIEMGDWQEVWDENTGCYYYWNTQTNEVTWELPQYLATQVQGLQHYQP | 0.1 ± 0.11
20 | SGWQYDTQCSLAGVAIEMGDWQEVWDENTGCYYYWNTQTNEVTWELPQYLATQVQGLQHYQP | 0.273 ± 0.057
21 | SGWQYDTQCSLAGVEIEMGDWQEVWDENTGCYYYWNTQTNEVTWELPQYLATQVQGLQHYQP | -0.178 ± 0.088
22 | SGWQYDTQCSLAGVCIEMGDWQEVWDENTGCYYYWNTQTNEVTWELPQYLATQVQGLQHYQP | -0.182 ± 0.11

Row | Variant | abundance fitness
23 | SGWQYDTQCSLAGVIIEMGDWQEVWDENTGCYYYWNTQTNEVTWELPQYLATQVQGLQHYQP | -0.67 ± 0.18
24 | SGWQYDTQCSLAGVKIEMGDWQEVWDENTGCYYYWNTQTNEVTWELPQYLATQVQGLQHYQP | -0.073 ± 0.11
25 | SGWQYDTQCSLAGVGCEMGDWQEVWDENTGCYYYWNTQTNEVTWELPQYLATQVQGLQHYQP | -0.373 ± 0.12
26 | SGWQYDTQCSLAGVGNEMGDWQEVWDENTGCYYYWNTQTNEVTWELPQYLATQVQGLQHYQP | -0.676 ± 0.33
27 | SGWQYDTQCSLAGVGREMGDWQEVWDENTGCYYYWNTQTNEVTWELPQYLATQVQGLQHYQP | -0.713 ± 0.068
28 | SGWQYDTQCSLAGVGMEMGDWQEVWDENTGCYYYWNTQTNEVTWELPQYLATQVQGLQHYQP | 0.08 ± 0.088
29 | SGWQYDTQCSLAGVGAEMGDWQEVWDENTGCYYYWNTQTNEVTWELPQYLATQVQGLQHYQP | -0.332 ± 0.082
30 | SGWQYDTQCSLAGVGPEMGDWQEVWDENTGCYYYWNTQTNEVTWELPQYLATQVQGLQHYQP | -0.735 ± 0.13
31 | SGWQYDTQCSLAGVGWEMGDWQEVWDENTGCYYYWNTQTNEVTWELPQYLATQVQGLQHYQP | -0.671 ± 0.092
32 | SGWQYDTQCSLAGVGDEMGDWQEVWDENTGCYYYWNTQTNEVTWELPQYLATQVQGLQHYQP | -0.742 ± 0.32
33 | SGWQYDTQCSLAGVGYEMGDWQEVWDENTGCYYYWNTQTNEVTWELPQYLATQVQGLQHYQP | -0.334 ± 0.27
34 | SGWQYDTQCSLAGVGEEMGDWQEVWDENTGCYYYWNTQTNEVTWELPQYLATQVQGLQHYQP | -0.507 ± 0.092
35 | SGWQYDTQCSLAGVGVEMGDWQEVWDENTGCYYYWNTQTNEVTWELPQYLATQVQGLQHYQP | 0.027 ± 0.058
36 | SGWQYDTQCSLAGVGLEMGDWQEVWDENTGCYYYWNTQTNEVTWELPQYLATQVQGLQHYQP | -0.137 ± 0.064
37 | SGWQYDTQCSLAGVGKEMGDWQEVWDENTGCYYYWNTQTNEVTWELPQYLATQVQGLQHYQP | -0.542 ± 0.15
38 | SGWQYDTQCSLAGVGFEMGDWQEVWDENTGCYYYWNTQTNEVTWELPQYLATQVQGLQHYQP | -0.195 ± 0.19
39 | SGWQYDTQCSLAGVGHEMGDWQEVWDENTGCYYYWNTQTNEVTWELPQYLATQVQGLQHYQP | -0.8 ± 0.41
40 | SGWQYDTQCSLAGVGSEMGDWQEVWDENTGCYYYWNTQTNEVTWELPQYLATQVQGLQHYQP | -0.574 ± 0.094
41 | SGWQYDTQCSLAGVGGEMGDWQEVWDENTGCYYYWNTQTNEVTWELPQYLATQVQGLQHYQP | -0.763 ± 0.088
42 | SGWQYDTQCSLAGVGQEMGDWQEVWDENTGCYYYWNTQTNEVTWELPQYLATQVQGLQHYQP | -0.621 ± 0.12
43 | SGWQYDTQCSLAGVGTEMGDWQEVWDENTGCYYYWNTQTNEVTWELPQYLATQVQGLQHYQP | -0.506 ± 0.11

Reference: the Human Domainome abundance scans (Beltran et al. 2025)
